# ± gives the uncertainty stated by the source.
# Assay: self-splicing fitness, log relative to wild type (ln ratio); higher = more splicing; Tetrahymena group I intron in knt gene, E. coli kanamycin selection, DiMSum; sequences stand for … in CUCUCU…GGAGGGAAAAGUUAUCAGGCAUGCACCUGGUAGCUAGUCUUUAAACCAAUAGAUUGCAUCGGUUUAAAAGGCAAGACCGUCAAAUUGCGGGAAAGGGGUCAACAGCCGUUCAGUACCAAGUCUCAGGGGAAACUUUGAGAUGGCCUUGCAAAGGGUAUGGUAAUAAGCUGACGGACAUGGUCCUAACCACGCAGCCAAGUCCUAAGUCAACAGAUCUUCUGUUGAUAUGGAUGCAGUUCACAGACUAAAUGUCGGUCGGGGAAGAUGUAUUCUUCUCAUAAGAUAUAGUCGGACCUCUCCUUAAUGGGAGCUAGCGGAUGAAGUGAUGCAACACUGGAGCCGCUGGGAACUAAUUUGUAUGCGAAAGUAUAUUGAUUAGUUUUGGAGUACUCGUGGUCG
# Outline: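 Library with all eight P1ex-region intron nucleotides randomised, intron inside the knt kanamycin-resistance gene on pET-22b(+), in E. coli BL21(DE3). Cells grew overnight at 37°C or 30°C on LB agar with or without 25 μg/mL kanamycin (plus 100 μg/mL carbenicillin, 50 μM IPTG, 0.2% rhamnose), in six replicate transformations. Pooled colonies were amplicon-sequenced on Illumina HiSeq 2500. DiMSum fitness is the error-weighted combination of wild-type-normalised replicate fold changes, kanamycin versus none.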
Sequence,self-splicing fitness (ln) (30 °C),self-splicing fitness (ln) (37 °C)
UGUAAGCAAUAUUACGUGAC,-3.47 ± 0.33,-1.77 ± 0.23
UGUAAGCAAUAUUACGUGGC,-4.03 ± 0.4,-2.26 ± 0.37
UGUAAGCAAUAUUACGUUAC,-2.91 ± 0.22,-3.12 ± 0.37
UGUAAGCAAUAUUACGUUAG,-1.56 ± 0.14,-0.556 ± 0.17
UGUAAGCAAUAUUACGUUCG,0.188 ± 0.095,0.33 ± 0.12
UGUAAGCAAUAUUACGUUUG,-1.24 ± 0.069,-0.871 ± 0.084
UGUCAGCAAUAUUACGACUU,-1.14 ± 0.1,0.303 ± 0.16
UGUCAGCAAUAUUACGAGGU,-2.83 ± 0.33,-2.81 ± 0.41
UGUCAGCAAUAUUACGAGUU,-1.33 ± 0.14,-1.44 ± 0.2
UGUCAGCAAUAUUACGAUAA,-0.114 ± 0.06,0.438 ± 0.074
UGUCAGCAAUAUUACGCAAU,-1.81 ± 0.14,-2.24 ± 0.2
UGUCAGCAAUAUUACGCAGU,-1.27 ± 0.18,-0.898 ± 0.27
UGUCAGCAAUAUUACGCAUG,-0.692 ± 0.077,0.415 ± 0.097
UGUCAGCAAUAUUACGCCCA,0.0616 ± 0.14,0.348 ± 0.18
UGUCAGCAAUAUUACGCGCG,-0.708 ± 0.14,0.0603 ± 0.13
UGUCAGCAAUAUUACGCGUG,0.623 ± 0.069,0.117 ± 0.098
UGUCAGCAAUAUUACGGAGG,-1.68 ± 0.072,-0.948 ± 0.097
UGUCAGCAAUAUUACGGAGU,-3.6 ± 0.17,-1.96 ± 0.15
UGUCAGCAAUAUUACGGCCU,-0.452 ± 0.23,0.483 ± 0.3
UGUCAGCAAUAUUACGGCUA,0.131 ± 0.094,0.327 ± 0.12
UGUCAGCAAUAUUACGGGUA,-0.294 ± 0.093,0.208 ± 0.11
UGUCAGCAAUAUUACGGGUG,-0.605 ± 0.042,-0.00626 ± 0.067
UGUCAGCAAUAUUACGGUAG,-0.675 ± 0.07,-0.235 ± 0.091
UGUCAGCAAUAUUACGUAAG,-0.352 ± 0.07,0.0208 ± 0.087

Sequence,self-splicing fitness (ln) (30 °C),self-splicing fitness (ln) (37 °C)
UGUCAGCAAUAUUACGUAGC,-3.11 ± 0.2,-2.17 ± 0.19
UGUCAGCAAUAUUACGUCCG,-0.177 ± 0.17,0.083 ± 0.2
UGUCAGCAAUAUUACGUCUA,0.314 ± 0.096,-0.489 ± 0.1
UGUCAGCAAUAUUACGUGAC,-2.8 ± 0.21,-2.81 ± 0.26
UGUCAGCAAUAUUACGUGGA,-1.92 ± 0.1,-0.49 ± 0.11
UGUCAGCAAUAUUACGUUCC,-1.82 ± 0.19,-0.73 ± 0.25
UGUCAGCAAUAUUACGUUCU,-1.16 ± 0.071,-0.142 ± 0.073
UGUCAGCAAUAUUACGUUGC,,-1.75 ± 0.46
UGUCAGCAAUAUUACGUUUA,-0.825 ± 0.095,-0.114 ± 0.089
UGUGAGCAAUAUUACGAACA,-0.691 ± 0.42,-0.543 ± 0.45
UGUGAGCAAUAUUACGACCA,-1.27 ± 0.17,-0.0518 ± 0.21
UGUGAGCAAUAUUACGAGGU,-3.52 ± 0.26,-2.55 ± 0.23
UGUGAGCAAUAUUACGAGUU,-2.72 ± 0.22,-1.97 ± 0.27
UGUGAGCAAUAUUACGCCCG,-0.83 ± 0.47,-1.17 ± 0.42
UGUGAGCAAUAUUACGCGUG,-1.92 ± 0.11,-1.75 ± 0.11
UGUGAGCAAUAUUACGGCCC,-1.88 ± 0.33,-1.43 ± 0.44
UGUGAGCAAUAUUACGGCCU,-1.89 ± 0.27,-1.18 ± 0.32
UGUGAGCAAUAUUACGGCUG,-0.445 ± 0.12,-0.456 ± 0.19
UGUGAGCAAUAUUACGGGCC,-3 ± 0.31,-3.45 ± 0.39
UGUGAGCAAUAUUACGGUCG,-0.638 ± 0.094,-0.935 ± 0.12
UGUGAGCAAUAUUACGGUGA,-2.19 ± 0.31,-1.67 ± 0.2
UGUGAGCAAUAUUACGGUUG,-2.98 ± 0.19,-2.17 ± 0.23
UGUGAGCAAUAUUACGUCCU,-0.548 ± 0.1,-1.51 ± 0.18
UGUGAGCAAUAUUACGUCGU,-2.1 ± 0.3,

Sequence,self-splicing fitness (ln) (30 °C),self-splicing fitness (ln) (37 °C)
UGUGAGCAAUAUUACGUGAC,-4.58 ± 0.32,-3.08 ± 0.25
UGUGAGCAAUAUUACGUGGA,-2.53 ± 0.15,-3.05 ± 0.22
UGUGAGCAAUAUUACGUUUA,-2.98 ± 0.32,-3.17 ± 0.47
UGUGAGCAAUAUUACGUUUG,-2.21 ± 0.14,-2.76 ± 0.26
UGUUAGCAAUAUUACGACGA,-0.147 ± 0.12,0.253 ± 0.15
UGUUAGCAAUAUUACGAGCC,-2.39 ± 0.22,-0.493 ± 0.17
UGUUAGCAAUAUUACGAGCU,-0.427 ± 0.16,0.455 ± 0.19
UGUUAGCAAUAUUACGCAGU,-3.62 ± 0.27,-2.48 ± 0.27
UGUUAGCAAUAUUACGCCCC,,0.337 ± 0.48
UGUUAGCAAUAUUACGCUUC,,-1.5 ± 0.48
UGUUAGCAAUAUUACGGAAA,,-2.24 ± 0.39
UGUUAGCAAUAUUACGGGGG,-3.91 ± 0.35,-1.94 ± 0.36
UGUUAGCAAUAUUACGGGUU,-4.27 ± 0.42,-1.58 ± 0.17
UGUUAGCAAUAUUACGUAAG,-0.949 ± 0.097,-0.452 ± 0.14
UGUUAGCAAUAUUACGUCGA,-0.909 ± 0.12,0.0206 ± 0.13
UGUUAGCAAUAUUACGUCGC,-3.73 ± 0.18,-2.23 ± 0.18
UUAAAGCAAUAUUACGAAGC,-3.34 ± 0.32,-2.25 ± 0.28
UUAAAGCAAUAUUACGACAA,0.44 ± 0.091,0.336 ± 0.11
UUAAAGCAAUAUUACGACGA,0.0585 ± 0.12,0.0349 ± 0.12
UUAAAGCAAUAUUACGACGU,-0.129 ± 0.069,0.0726 ± 0.1
UUAAAGCAAUAUUACGACUU,-1.11 ± 0.1,-0.0515 ± 0.14
UUAAAGCAAUAUUACGAGAU,-3.41 ± 0.21,-2.19 ± 0.21
UUAAAGCAAUAUUACGCAAU,-2.44 ± 0.15,-1.42 ± 0.17
UUAAAGCAAUAUUACGCACC,-0.965 ± 0.33,-0.676 ± 0.44

Sequence,self-splicing fitness (ln) (30 °C),self-splicing fitness (ln) (37 °C)
UUAAAGCAAUAUUACGCAUC,-1.88 ± 0.17,-1.39 ± 0.34
UUAAAGCAAUAUUACGCCCG,-0.0363 ± 0.09,0.273 ± 0.11
UUAAAGCAAUAUUACGCGAA,-0.169 ± 0.15,0.0649 ± 0.18
UUAAAGCAAUAUUACGCGAU,-3.01 ± 0.24,-0.953 ± 0.17
UUAAAGCAAUAUUACGCGUC,-1.08 ± 0.11,-1.66 ± 0.16
UUAAAGCAAUAUUACGCUGU,-1.31 ± 0.16,-1.68 ± 0.2
UUAAAGCAAUAUUACGGGUG,0.148 ± 0.069,0.271 ± 0.098
UUAAAGCAAUAUUACGGUCA,0.199 ± 0.071,0.479 ± 0.11
UUAAAGCAAUAUUACGGUGC,-4.36 ± 0.42,-2.14 ± 0.34
UUAAAGCAAUAUUACGGUGG,-0.511 ± 0.079,0.0701 ± 0.1
UUAAAGCAAUAUUACGUACU,-0.208 ± 0.079,-0.142 ± 0.099
UUAAAGCAAUAUUACGUGGG,-1.65 ± 0.1,-2.03 ± 0.17
UUAAAGCAAUAUUACGUUCA,0.284 ± 0.087,0.233 ± 0.12
UUAAAGCAAUAUUACGUUCG,0.19 ± 0.084,-0.157 ± 0.096
UUACAGCAAUAUUACGACCA,-0.658 ± 0.14,-0.854 ± 0.18
UUACAGCAAUAUUACGACCC,-2.6 ± 0.32,-2.14 ± 0.44
UUACAGCAAUAUUACGAGUC,-4.54 ± 0.3,-2.84 ± 0.26
UUACAGCAAUAUUACGAGUG,-1.16 ± 0.069,-0.895 ± 0.079
UUACAGCAAUAUUACGAUCG,-0.32 ± 0.09,-0.268 ± 0.11
UUACAGCAAUAUUACGCGAA,-1.02 ± 0.12,-0.94 ± 0.11
UUACAGCAAUAUUACGCGGU,-2.9 ± 0.12,-3.15 ± 0.24
UUACAGCAAUAUUACGCUAA,-2.01 ± 0.13,-0.87 ± 0.11
UUACAGCAAUAUUACGCUAC,-3.71 ± 0.22,-1.96 ± 0.24
UUACAGCAAUAUUACGCUGA,-3.22 ± 0.17,-2.55 ± 0.19

# — the supplement of paper PMC7877785
